Reference: US20250313631A1 (HUMMINGBIRD BIOSCIENCE PTE, published 2025)
Where a chain is given by its changes, count along the chain named. Names and notes keep the numbering of the source.

B1: anti-VISTA clone V4-C24 IgG1 (antibody, V domains shown)
VH: QVQLQESGPGLVKPSDTLSLTCTVSGYSITSDYTWNWIRQTPGKGLEWIGHITYSGSVSYNPSLRSRVTISRDTSKNQFSLKLSSVTAADTATYSCARALYYPWYFDVWGTGTTVTVSS
VL: EIVLTQSPATLSLSPGERATLSCRASSSVGYIHWYQQKPGQAPRPLIYTTSYRATGIPARFSGSGSGTDNTLTISSLEPEDSAVYYCQQWSSYPPITFGGGTKLEVKR
B2: anti-VISTA clone V4-C27 IgG1 (antibody, V domains shown)
VH: B1 VH
VL: B1 VL with T49A, S51Y, Y52N
B3: anti-VISTA clone V4-C26 IgG1 (antibody)
heavy: not shown
light: EIVLTQSPATLSLSPGERATLSCRASSSVGYIHWYQQKPGQAPRPIIYTTSNRATGIPARFSGSGSGTDNTLTISSLEPEDSAVYYCQQWSSYPPITFGGGTKLEVKRTVAAPSVFIFPPSDEQLKSGTASVVCLLNNFYPREAKVQWKVDNALQSGNSQESVTEQDSKDSTYSLSSTLTLSKADYEKHKVYACEVTHQGLSSPVTKSFNRGEC
B4: anti-VISTA clone 4M2-C12 IgG1 (antibody)
heavy: not shown
light: DIVITQTPAILSTSPGEKVTMTCRASSSVGYIHWYQQKPGSSPKPWIYATSNLASGVPARFSGSGSGTSNSLTITRVEAEDAATYYCQQWSSYPPITFGGGTKLEVKRTVAAPSVFIFPPSDEQLKSGTASVVCLLNNFYPREAKVQWKVDNALQSGNSQESVTEQDSKDSTYSLSSTLTLSKADYEKHKVYACEVTHQGLSSPVTKSFNRGEC
notes: mouse variable regions on human IgG1/kappa constant regions; also called V4; V4pr
B5: V4-C26 hIgG4 (antibody)
heavy: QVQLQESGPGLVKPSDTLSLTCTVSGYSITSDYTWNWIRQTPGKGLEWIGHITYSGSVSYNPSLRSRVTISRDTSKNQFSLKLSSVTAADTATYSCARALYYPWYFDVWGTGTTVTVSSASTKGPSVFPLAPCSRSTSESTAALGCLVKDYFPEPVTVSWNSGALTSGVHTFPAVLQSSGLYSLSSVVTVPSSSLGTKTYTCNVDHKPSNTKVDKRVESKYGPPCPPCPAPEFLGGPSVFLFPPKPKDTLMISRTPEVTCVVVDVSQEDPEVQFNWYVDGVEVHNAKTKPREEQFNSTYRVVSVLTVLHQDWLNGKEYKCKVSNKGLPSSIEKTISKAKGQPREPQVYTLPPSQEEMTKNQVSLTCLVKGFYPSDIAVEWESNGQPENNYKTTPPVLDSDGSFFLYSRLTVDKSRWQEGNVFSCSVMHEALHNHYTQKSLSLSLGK
light: B3 light
notes: human IgG4 (S228P)/kappa format; also called HMBD-002; HMBD-002-V4C26

What follows are binders tested against T1, recombinant mouse VISTA (His-tagged) (mouse, UniProt Q9D659 33-191) (assay: BLI (Octet), 1:1 global fit, His-tagged mouse VISTA captured).
T1 construct: also called murine VISTA; mVISTA
T1 sequence (looked up): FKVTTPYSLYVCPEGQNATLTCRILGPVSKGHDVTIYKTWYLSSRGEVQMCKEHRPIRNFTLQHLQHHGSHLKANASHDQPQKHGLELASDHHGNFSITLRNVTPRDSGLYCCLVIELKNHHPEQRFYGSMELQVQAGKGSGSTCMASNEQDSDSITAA
For B1, the Kd was less than 0.001 nM, the koff was less than 1e-07 s⁻¹ and the kon was 401000 M⁻¹ s⁻¹.
B2 showed a Kd of less than 0.001 nM, a koff of less than 1e-07 s⁻¹ and a kon of 426000 M⁻¹ s⁻¹.
Binder B3 has a Kd of less than 0.001 nM, a koff of less than 1e-07 s⁻¹ and a kon of 403000 M⁻¹ s⁻¹.

These binders were tested against T1, recombinant mouse VISTA (His-tagged) (assay: ELISA, plate coated with mouse VISTA).
B4 showed an EC50 of 0.387 nM.
B1 showed an EC50 of 0.0304 nM.
B2 was tested, and the EC50 was 0.0374 nM.
Work on B3 yielded an EC50 of 0.0325 nM.

What follows are binders tested against T1, recombinant mouse VISTA (His-tagged) (assay: ELISA, plate coated with mouse VISTA; unit nM from the legend paragraph 699).
For B1, the EC50 was 0.116 nM.
B2 was tested, and the EC50 was 0.073 nM.
B3 was tested, and the EC50 was 0.086 nM.

What follows are binders tested against T2, human B7H3 (human, UniProt Q5ZPR3 29-461, limits assumed) (assay: ELISA, plate coated with human B7H3, antibody titrated).
T2 construct: also called CD276
T2 sequence (looked up): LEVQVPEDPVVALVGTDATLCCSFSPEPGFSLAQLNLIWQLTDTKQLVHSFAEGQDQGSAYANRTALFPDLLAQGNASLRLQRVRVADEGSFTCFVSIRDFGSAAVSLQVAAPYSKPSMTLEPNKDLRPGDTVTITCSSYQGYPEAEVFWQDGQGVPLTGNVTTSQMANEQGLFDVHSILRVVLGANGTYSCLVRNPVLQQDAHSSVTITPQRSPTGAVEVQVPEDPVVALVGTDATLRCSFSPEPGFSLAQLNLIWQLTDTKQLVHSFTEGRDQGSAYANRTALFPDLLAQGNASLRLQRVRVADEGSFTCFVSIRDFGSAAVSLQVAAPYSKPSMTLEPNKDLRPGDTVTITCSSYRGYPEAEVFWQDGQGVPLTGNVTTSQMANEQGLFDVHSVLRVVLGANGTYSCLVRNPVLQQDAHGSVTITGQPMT
Procedure: (§1) 384-well plates were coated with 1 μg/ml of target antigen diluted in PBS for 16 hrs at 4° C. […] After washing, plates were developed with colorimetric detection substrate 3,3′,5,5′-tetramethylbenzidine (Turbo-TMB; Pierce) for 10 min.
B5: no binding (tested: about 3e-8 M).

Each binder was assayed against T1, recombinant mouse VISTA (His-tagged) (assay: ELISA, plate coated with mouse VISTA; unit nM from the legend paragraph 698).
For B1, the EC50 was 0.042 nM.
Binder B2 has an EC50 of 0.047 nM.
B3 was tested, and the EC50 was 0.058 nM.

Each binder was assayed against T3, recombinant rat VISTA (His-tagged) (rat, UniProt A0ABK0L5H3 33-192) (assay: ELISA, plate coated with rat VISTA).
T3 sequence: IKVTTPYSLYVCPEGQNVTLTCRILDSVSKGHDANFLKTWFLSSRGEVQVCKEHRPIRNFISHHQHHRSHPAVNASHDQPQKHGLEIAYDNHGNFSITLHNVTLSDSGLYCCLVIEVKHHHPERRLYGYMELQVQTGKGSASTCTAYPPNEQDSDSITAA
Work on B4 yielded an EC50 of 1.25 nM.
B1 gave an EC50 of 0.201 nM.
Binder B2 has an EC50 of 0.196 nM.
For B3, the EC50 was 0.16 nM.

Each binder was assayed against T1, recombinant mouse VISTA (His-tagged) (assay: BLI (Octet), 1:1 global fit, mouse VISTA captured).
Procedure: All measurements were performed at 25° C. with agitation at 1000 rpm. […] Sensograms were referenced for buffer effects and then fitted using the Octet QK384 user software (Pall ForteBio, USA).
Work on B1 yielded a Kd of 0.202 nM, a koff of 7.6e-05 s⁻¹ and a kon of 378000 M⁻¹ s⁻¹.
Binder B2 has a Kd of 0.395 nM, a koff of 0.00016 s⁻¹ and a kon of 392000 M⁻¹ s⁻¹.
In the case of B3, the Kd is reported as 0.53 nM, the koff is reported as 0.0002 s⁻¹ and the kon is reported as 382000 M⁻¹ s⁻¹.

The binders below were run against T4, recombinant human VISTA (His-tagged) (human, UniProt Q9H7M9 33-194) (assay: BLI (Octet), 1:1 global fit, human VISTA captured).
T4 construct: bought soluble protein (Sino Biological); also called hVISTA; human VISTA polypeptide
Procedure: (§2) Finally, the biosensors were incubated for 120 sec in PBS pH 7.2 to obtain the dissociation curves. Kinetic and affinity constants were calculated by global fitting of the association and dissociation data to a 1:1 binding model.
B1 gave a Kd of less than 0.001 nM, a koff of less than 1e-07 s⁻¹ and a kon of 373000 M⁻¹ s⁻¹.
B2 showed a Kd of 0.119 nM, a koff of 6.1e-05 s⁻¹ and a kon of 511000 M⁻¹ s⁻¹.
B3 was tested, and the Kd was 0.241 nM, the koff was 9.8e-05 s⁻¹ and the kon was 407000 M⁻¹ s⁻¹.

These binders were tested against T5, recombinant cynomolgus macaque VISTA (His-tagged) (cynomolgus macaque, UniProt A0A7N9IB00 33-194) (assay: ELISA, plate coated with cyno VISTA).
T5 construct: also called cyno VISTA; cynomolgus monkey VISTA
For B4, the EC50 was 0.0472 nM.
Binder B1 has an EC50 of 0.0385 nM.
B2 was tested, and the EC50 was 0.0324 nM.
B3 was tested, and the EC50 was 0.0356 nM.

These binders were tested against T6, human PD-L1 (human, UniProt Q9NZQ7 19-239) (assay: BLI (Octet), His-tagged human PD-L1 on anti-Penta-HIS biosensor, antibody 500-15.6 nM).
T6 construct: captured through a His tag in the BLI experiments; also called hPD-L1; B7H1/PDL-1
T6 sequence (Q9NZQ7 19-239 limits assumed): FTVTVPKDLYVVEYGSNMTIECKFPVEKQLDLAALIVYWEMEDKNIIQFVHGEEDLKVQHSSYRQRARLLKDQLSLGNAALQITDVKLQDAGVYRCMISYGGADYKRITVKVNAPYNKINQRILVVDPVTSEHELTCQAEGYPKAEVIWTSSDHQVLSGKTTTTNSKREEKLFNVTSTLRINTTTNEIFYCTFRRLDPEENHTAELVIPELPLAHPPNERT
Procedure: as §2
B1: no binding (tested: 500 nM).
B2: no binding (tested: 500 nM).
B3: no binding (tested: 500 nM).

These binders were tested against T4, recombinant human VISTA (His-tagged) (assay: ELISA, plate coated with human VISTA; unit nM from the legend paragraph 697).
With B4 the EC50 was 0.036 nM.
B1 was tested, and the EC50 was 0.01 nM.
Work on B2 yielded an EC50 of less than 0.0007 nM.
Work on B3 yielded an EC50 of 0.0034 nM.

The binders below were run against T4, recombinant human VISTA (His-tagged) (assay: ELISA, plate coated with human VISTA; unit nM from the legend paragraph 699).
Binder B1 has an EC50 of 0.073 nM.
Work on B2 yielded an EC50 of 0.047 nM.
With B3 the EC50 was 0.064 nM.

These binders were tested against T1, recombinant mouse VISTA (His-tagged) (assay: ELISA, plate coated with mouse VISTA; unit nM from the legend paragraph 697).
B4 showed an EC50 of 0.43 nM.
B1 showed an EC50 of 0.017 nM.
In the case of B2, the EC50 is reported as 0.0023 nM.
B3 gave an EC50 of 0.0089 nM.

The binders below were run against T4, recombinant human VISTA (His-tagged) (assay: ELISA, plate coated with human VISTA).
Binder B4 has an EC50 of 0.0319 nM.
Work on B1 yielded an EC50 of 0.0268 nM.
B2 gave an EC50 of 0.0295 nM.
For B3, the EC50 was 0.0241 nM.

Each binder was assayed against T4, recombinant human VISTA (His-tagged) (assay: ELISA, plate coated with human VISTA; unit nM from the legend paragraph 698).
B1 was tested, and the EC50 was 0.032 nM.
For B2, the EC50 was 0.037 nM.
B3 was tested, and the EC50 was 0.038 nM.

Each binder was assayed against T4, recombinant human VISTA (His-tagged) (assay: BLI (Octet), 1:1 global fit, His-tagged human VISTA captured).
B1 showed a Kd of less than 0.001 nM, a koff of less than 1e-07 s⁻¹ and a kon of 384000 M⁻¹ s⁻¹.
Work on B2 yielded a Kd of less than 0.001 nM, a koff of less than 1e-07 s⁻¹ and a kon of 465000 M⁻¹ s⁻¹.
With B3 the Kd was less than 0.001 nM, the koff was less than 1e-07 s⁻¹ and the kon was 404000 M⁻¹ s⁻¹.

What follows are binders tested against human PD-1 (human, UniProt Q15116 25-167) (assay: ELISA, plate coated with the antigen).
Chain of human PD-1 (Q15116 25-167 limits assumed): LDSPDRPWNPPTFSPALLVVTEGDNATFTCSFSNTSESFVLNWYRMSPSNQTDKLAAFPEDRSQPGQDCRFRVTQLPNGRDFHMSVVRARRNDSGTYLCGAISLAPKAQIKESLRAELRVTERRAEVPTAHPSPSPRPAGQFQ
B1: no binding (tested: log -7.5 M).

The binders below were run against T4, recombinant human VISTA (His-tagged) (assay: ELISA on coated human VISTA, antibody diluted in buffer of pH 6).
Procedure: as §1
With B5 the EC50 was 0.0589 nM.

Biological target: T1, recombinant mouse VISTA (His-tagged)
Assay: BLI (Octet), 1:1 global fit, His-tagged mouse VISTA captured
Remark: another data set of the same source
In the case of B1, the Kd is reported as less than 0.001 nM, the koff is reported as less than 1e-07 s⁻¹ and the kon is reported as 462000 M⁻¹ s⁻¹.
For B2, the Kd was 0.137 nM, the koff was 5.5e-05 s⁻¹ and the kon was 398000 M⁻¹ s⁻¹.
B3 was tested, and the Kd was 0.183 nM, the koff was 7.6e-05 s⁻¹ and the kon was 413000 M⁻¹ s⁻¹.
